Laboratory results from FireProtDB (doi:10.1016/0022-2836(91)90725-l).

Settings: Bacillus amyloliquefaciens; pH 6.3; 25 °C; Urea; Fluorescence; MES 1.00 M; NaCl 613 mM; reversible: yes; whole UniProt chain shown

B1: Ribonuclease wild type, P00648 (protein)
chain: MMKMEGIALKKRLSWISVCLLVLVSAAGMLFSTAAKTETSSHKAHTEAQVINTFDGVADYLQTYHKLPDNYITKSEAQALGWVASKGNLADVAPGKSIGGDIFSNREGKLPGKSGRTWREADINYTSGFRNSDRILYSSDWLIYKTTDHYQTFTKIR
- denaturant m value: 2.22 kcal/mol/M
- denaturant midpoint (higher = more stable): 4.57 M
- unfolding free energy: 10.2 kcal/mol
